The term KM denotes the concentration of substrate that gives half-maximal velocity. For orientation: kcat means the maximal rate divided by the concentration of active sites.

B1: FIXa-Y155F/K247N/N249S/R338E/R403E/E410N (protein)
chain 1: YNSGKLEEFVQGNLERECMEEKCSFEEAREVFENTERTTEFWKQYVDGDQCESNPCLNGGSCKDDINSYECWCPFGFEGKNCELDVTCNIKNGRCEQFCKNSADNKVVCSCTEGYRLAENQKSCEPAVPFPCGRVSVSQTSKLTR
chain 2: VVGGEDAKPGQFPWQVVLNGKVDAFCGGSIVNEKWIVTAAHCVETGVKITVVAGEHNIEETEHTEQNRSVIRIIPHHNYNAAINKYNHDIALLELDEPLVLNSYVTPICIADKEYTNIFLKFGSGYVSGWGRVFHKGRSALVLQYLRVPLVDRATCLESTKFTIYNNMFCAGFHEGGRDSCQGDSGGPHVTEVEGTSFLTGIISWGEECAMKGKYGIYTKVSEYVNWIKNKTKLT
B2: FIXa-Y155F/K247N/N249S/R318Y/R338E/T343R/R403E/E410N (protein)
chain 1: YNSGKLEEFVQGNLERECMEEKCSFEEAREVFENTERTTEFWKQYVDGDQCESNPCLNGGSCKDDINSYECWCPFGFEGKNCELDVTCNIKNGRCEQFCKNSADNKVVCSCTEGYRLAENQKSCEPAVPFPCGRVSVSQTSKLTR
chain 2: VVGGEDAKPGQFPWQVVLNGKVDAFCGGSIVNEKWIVTAAHCVETGVKITVVAGEHNIEETEHTEQNRSVIRIIPHHNYNAAINKYNHDIALLELDEPLVLNSYVTPICIADKEYTNIFLKFGSGYVSGWGRVFHKGYSALVLQYLRVPLVDRATCLESTKFRIYNNMFCAGFHEGGRDSCQGDSGGPHVTEVEGTSFLTGIISWGEECAMKGKYGIYTKVSEYVNWIKNKTKLT
B3: FIXa-Y155F/N260S/R318Y/R338E/T343R/R403E/E410N (protein)
chain 1: YNSGKLEEFVQGNLERECMEEKCSFEEAREVFENTERTTEFWKQYVDGDQCESNPCLNGGSCKDDINSYECWCPFGFEGKNCELDVTCNIKNGRCEQFCKNSADNKVVCSCTEGYRLAENQKSCEPAVPFPCGRVSVSQTSKLTR
chain 2: VVGGEDAKPGQFPWQVVLNGKVDAFCGGSIVNEKWIVTAAHCVETGVKITVVAGEHNIEETEHTEQKRNVIRIIPHHNYSAAINKYNHDIALLELDEPLVLNSYVTPICIADKEYTNIFLKFGSGYVSGWGRVFHKGYSALVLQYLRVPLVDRATCLESTKFRIYNNMFCAGFHEGGRDSCQGDSGGPHVTEVEGTSFLTGIISWGEECAMKGKYGIYTKVSEYVNWIKNKTKLT
B4: FIXa-K247N/N249S/R338E/R403E/E410N (protein)
chain 1: YNSGKLEEFVQGNLERECMEEKCSFEEAREVFENTERTTEFWKQYVDGDQCESNPCLNGGSCKDDINSYECWCPFGFEGKNCELDVTCNIKNGRCEQFCKNSADNKVVCSCTEGYRLAENQKSCEPAVPFPCGRVSVSQTSKLTR
chain 2: VVGGEDAKPGQFPWQVVLNGKVDAFCGGSIVNEKWIVTAAHCVETGVKITVVAGEHNIEETEHTEQNRSVIRIIPHHNYNAAINKYNHDIALLELDEPLVLNSYVTPICIADKEYTNIFLKFGSGYVSGWGRVFHKGRSALVLQYLRVPLVDRATCLESTKFTIYNNMFCAGFHEGGRDSCQGDSGGPHVTEVEGTSFLTGIISWGEECAMKGKYGIYTKVSEYVNWIKNKTKLT
B5: FIXa-N260S/R318Y/R338E/T343R/R403E/E410N (protein)
chain 1: YNSGKLEEFVQGNLERECMEEKCSFEEAREVFENTERTTEFWKQYVDGDQCESNPCLNGGSCKDDINSYECWCPFGFEGKNCELDVTCNIKNGRCEQFCKNSADNKVVCSCTEGYRLAENQKSCEPAVPFPCGRVSVSQTSKLTR
chain 2: VVGGEDAKPGQFPWQVVLNGKVDAFCGGSIVNEKWIVTAAHCVETGVKITVVAGEHNIEETEHTEQKRNVIRIIPHHNYSAAINKYNHDIALLELDEPLVLNSYVTPICIADKEYTNIFLKFGSGYVSGWGRVFHKGYSALVLQYLRVPLVDRATCLESTKFRIYNNMFCAGFHEGGRDSCQGDSGGPHVTEVEGTSFLTGIISWGEECAMKGKYGIYTKVSEYVNWIKNKTKLT
B6: FIXa-Y155F/R318Y/R338E/T343R/R403E (protein)
chain 1: YNSGKLEEFVQGNLERECMEEKCSFEEAREVFENTERTTEFWKQYVDGDQCESNPCLNGGSCKDDINSYECWCPFGFEGKNCELDVTCNIKNGRCEQFCKNSADNKVVCSCTEGYRLAENQKSCEPAVPFPCGRVSVSQTSKLTR
chain 2: VVGGEDAKPGQFPWQVVLNGKVDAFCGGSIVNEKWIVTAAHCVETGVKITVVAGEHNIEETEHTEQKRNVIRIIPHHNYNAAINKYNHDIALLELDEPLVLNSYVTPICIADKEYTNIFLKFGSGYVSGWGRVFHKGYSALVLQYLRVPLVDRATCLESTKFRIYNNMFCAGFHEGGRDSCQGDSGGPHVTEVEGTSFLTGIISWGEECAMKGKYGIYTKVSEYVNWIKEKTKLT
B7: FIXa-K228N/I251S/R318Y/R338E/R403E/E410N (protein)
chain 1: YNSGKLEEFVQGNLERECMEEKCSFEEAREVFENTERTTEFWKQYVDGDQCESNPCLNGGSCKDDINSYECWCPFGFEGKNCELDVTCNIKNGRCEQFCKNSADNKVVCSCTEGYRLAENQKSCEPAVPFPCGRVSVSQTSKLTR
chain 2: VVGGEDAKPGQFPWQVVLNGKVDAFCGGSIVNEKWIVTAAHCVETGVNITVVAGEHNIEETEHTEQKRNVSRIIPHHNYNAAINKYNHDIALLELDEPLVLNSYVTPICIADKEYTNIFLKFGSGYVSGWGRVFHKGYSALVLQYLRVPLVDRATCLESTKFTIYNNMFCAGFHEGGRDSCQGDSGGPHVTEVEGTSFLTGIISWGEECAMKGKYGIYTKVSEYVNWIKNKTKLT
B8: FIXa-Y155F/R318Y/T343R/R403E/E410N (protein)
chain 1: YNSGKLEEFVQGNLERECMEEKCSFEEAREVFENTERTTEFWKQYVDGDQCESNPCLNGGSCKDDINSYECWCPFGFEGKNCELDVTCNIKNGRCEQFCKNSADNKVVCSCTEGYRLAENQKSCEPAVPFPCGRVSVSQTSKLTR
chain 2: VVGGEDAKPGQFPWQVVLNGKVDAFCGGSIVNEKWIVTAAHCVETGVKITVVAGEHNIEETEHTEQKRNVIRIIPHHNYNAAINKYNHDIALLELDEPLVLNSYVTPICIADKEYTNIFLKFGSGYVSGWGRVFHKGYSALVLQYLRVPLVDRATCLRSTKFRIYNNMFCAGFHEGGRDSCQGDSGGPHVTEVEGTSFLTGIISWGEECAMKGKYGIYTKVSEYVNWIKNKTKLT
B9: FIXa-Y155F/K228N/I251S/R318Y/R338E/R403E/E410N (protein)
chain 1: YNSGKLEEFVQGNLERECMEEKCSFEEAREVFENTERTTEFWKQYVDGDQCESNPCLNGGSCKDDINSYECWCPFGFEGKNCELDVTCNIKNGRCEQFCKNSADNKVVCSCTEGYRLAENQKSCEPAVPFPCGRVSVSQTSKLTR
chain 2: VVGGEDAKPGQFPWQVVLNGKVDAFCGGSIVNEKWIVTAAHCVETGVNITVVAGEHNIEETEHTEQKRNVSRIIPHHNYNAAINKYNHDIALLELDEPLVLNSYVTPICIADKEYTNIFLKFGSGYVSGWGRVFHKGYSALVLQYLRVPLVDRATCLESTKFTIYNNMFCAGFHEGGRDSCQGDSGGPHVTEVEGTSFLTGIISWGEECAMKGKYGIYTKVSEYVNWIKNKTKLT
B10: FIXa-Y155F/R318Y/R338E/T343R/E410N (protein)
chain 1: YNSGKLEEFVQGNLERECMEEKCSFEEAREVFENTERTTEFWKQYVDGDQCESNPCLNGGSCKDDINSYECWCPFGFEGKNCELDVTCNIKNGRCEQFCKNSADNKVVCSCTEGYRLAENQKSCEPAVPFPCGRVSVSQTSKLTR
chain 2: VVGGEDAKPGQFPWQVVLNGKVDAFCGGSIVNEKWIVTAAHCVETGVKITVVAGEHNIEETEHTEQKRNVIRIIPHHNYNAAINKYNHDIALLELDEPLVLNSYVTPICIADKEYTNIFLKFGSGYVSGWGRVFHKGYSALVLQYLRVPLVDRATCLESTKFRIYNNMFCAGFHEGGRDSCQGDSGGPHVTEVEGTSFLTGIISWGEECAMKGKYGIYTKVSRYVNWIKNKTKLT
B11: FIXa-Y155F/R338E/T343R/R403E/E410N (protein)
chain 1: YNSGKLEEFVQGNLERECMEEKCSFEEAREVFENTERTTEFWKQYVDGDQCESNPCLNGGSCKDDINSYECWCPFGFEGKNCELDVTCNIKNGRCEQFCKNSADNKVVCSCTEGYRLAENQKSCEPAVPFPCGRVSVSQTSKLTR
chain 2: VVGGEDAKPGQFPWQVVLNGKVDAFCGGSIVNEKWIVTAAHCVETGVKITVVAGEHNIEETEHTEQKRNVIRIIPHHNYNAAINKYNHDIALLELDEPLVLNSYVTPICIADKEYTNIFLKFGSGYVSGWGRVFHKGRSALVLQYLRVPLVDRATCLESTKFRIYNNMFCAGFHEGGRDSCQGDSGGPHVTEVEGTSFLTGIISWGEECAMKGKYGIYTKVSEYVNWIKNKTKLT
B12: FIXa-R318Y/R338E/T343R/R403E (protein)
chain 1: YNSGKLEEFVQGNLERECMEEKCSFEEAREVFENTERTTEFWKQYVDGDQCESNPCLNGGSCKDDINSYECWCPFGFEGKNCELDVTCNIKNGRCEQFCKNSADNKVVCSCTEGYRLAENQKSCEPAVPFPCGRVSVSQTSKLTR
chain 2: VVGGEDAKPGQFPWQVVLNGKVDAFCGGSIVNEKWIVTAAHCVETGVKITVVAGEHNIEETEHTEQKRNVIRIIPHHNYNAAINKYNHDIALLELDEPLVLNSYVTPICIADKEYTNIFLKFGSGYVSGWGRVFHKGYSALVLQYLRVPLVDRATCLESTKFRIYNNMFCAGFHEGGRDSCQGDSGGPHVTEVEGTSFLTGIISWGEECAMKGKYGIYTKVSEYVNWIKEKTKLT
B13: FIXa-R338E/T343R/R403E/E410N (protein)
chain 1: YNSGKLEEFVQGNLERECMEEKCSFEEAREVFENTERTTEFWKQYVDGDQCESNPCLNGGSCKDDINSYECWCPFGFEGKNCELDVTCNIKNGRCEQFCKNSADNKVVCSCTEGYRLAENQKSCEPAVPFPCGRVSVSQTSKLTR
chain 2: VVGGEDAKPGQFPWQVVLNGKVDAFCGGSIVNEKWIVTAAHCVETGVKITVVAGEHNIEETEHTEQKRNVIRIIPHHNYNAAINKYNHDIALLELDEPLVLNSYVTPICIADKEYTNIFLKFGSGYVSGWGRVFHKGRSALVLQYLRVPLVDRATCLESTKFRIYNNMFCAGFHEGGRDSCQGDSGGPHVTEVEGTSFLTGIISWGEECAMKGKYGIYTKVSEYVNWIKNKTKLT

In this series the target is Factor X (FX), P00742.
Factor X (FX), P00742, sequence (P00742 whole entry, looked up): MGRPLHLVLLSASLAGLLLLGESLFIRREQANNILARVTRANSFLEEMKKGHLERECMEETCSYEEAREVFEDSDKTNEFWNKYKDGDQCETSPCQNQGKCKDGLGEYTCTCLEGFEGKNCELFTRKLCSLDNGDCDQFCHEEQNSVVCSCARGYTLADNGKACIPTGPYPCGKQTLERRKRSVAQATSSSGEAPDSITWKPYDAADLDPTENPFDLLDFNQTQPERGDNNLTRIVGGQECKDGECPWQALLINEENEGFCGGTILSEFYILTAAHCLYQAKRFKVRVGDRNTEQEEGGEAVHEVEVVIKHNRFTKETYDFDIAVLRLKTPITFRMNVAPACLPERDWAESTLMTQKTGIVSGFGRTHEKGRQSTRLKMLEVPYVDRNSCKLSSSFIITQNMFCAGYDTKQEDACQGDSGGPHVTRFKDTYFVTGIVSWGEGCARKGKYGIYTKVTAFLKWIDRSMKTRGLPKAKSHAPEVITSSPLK
Regarding B1, the KM came to 0.0487 µM and the kcat of FX activation by FIXa in the Xase complex (FVIIIa, PC/PS vesicles, Ca2+) came to 5 s⁻¹.

Take B2: the KM was 0.0257 µM and the kcat of FX activation by FIXa in the Xase complex (FVIIIa, PC/PS vesicles, Ca2+) came out at 9.7 s⁻¹.

As to B3, the kcat was 5.8 s⁻¹.

B4: the KM amounted to 0.025 µM and the kcat of FX activation by FIXa in the Xase complex (FVIIIa, PC/PS vesicles, Ca2+) turned out to be 4.8 s⁻¹.

Regarding B5, the KM stood at 0.0321 µM and the kcat of FX activation by FIXa in the Xase complex (FVIIIa, PC/PS vesicles, Ca2+) stood at 8.9 s⁻¹.

Consider B6, for which the KM came out at 0.034 µM and the kcat of FX activation by FIXa in the Xase complex (FVIIIa, PC/PS vesicles, Ca2+) is 8.2 s⁻¹.

Take B7: the KM is 0.0364 µM and the kcat of FX activation by FIXa in the Xase complex (FVIIIa, PC/PS vesicles, Ca2+) turned out to be 7.5 s⁻¹.

Take B8: the KM came out at 0.034 µM and the kcat of FX activation by FIXa in the Xase complex (FVIIIa, PC/PS vesicles, Ca2+) was determined as 8.8 s⁻¹.

For B9, the KM stood at 0.0393 µM and the kcat of FX activation by FIXa in the Xase complex (FVIIIa, PC/PS vesicles, Ca2+) stood at 5.3 s⁻¹.

With B10, the KM was 0.0256 µM and the kcat of FX activation by FIXa in the Xase complex (FVIIIa, PC/PS vesicles, Ca2+) was found to be 9.2 s⁻¹.

In the case of B11, the KM is 0.0259 µM and the kcat of FX activation by FIXa in the Xase complex (FVIIIa, PC/PS vesicles, Ca2+) was determined as 5.7 s⁻¹.

For B12, the KM turned out to be 0.0443 µM and the kcat of FX activation by FIXa in the Xase complex (FVIIIa, PC/PS vesicles, Ca2+) is 6.7 s⁻¹.

On to B13, for which the KM turned out to be 0.0347 µM and the kcat of FX activation by FIXa in the Xase complex (FVIIIa, PC/PS vesicles, Ca2+) is 9.8 s⁻¹.

Source of the values: patent US20210230570.
